Experimental data reported in article PMC8691596.

How the values were obtained:
[1] = target: cynomolgus monkey FcRn, heterodimer with β2 microglobulin, extracellular domain with C-terminal hexa-His (cynomolgus monkey | not stated) (UniProt Q8SPV9); assay: SPR
[2] = target: mouse FcRn, heterodimer with β2 microglobulin, extracellular domain with C-terminal hexa-His (mouse | not stated) (UniProt Q61559); assay: SPR
[3] = target: human FcRn, heterodimer with β2 microglobulin, extracellular domain with C-terminal hexa-His (UniProt P55899); assay: SPR
Chain of human FcRn, heterodimer with β2 microglobulin, extracellular domain with C-terminal hexa-His (P55899 24-297, chain 1 of 2): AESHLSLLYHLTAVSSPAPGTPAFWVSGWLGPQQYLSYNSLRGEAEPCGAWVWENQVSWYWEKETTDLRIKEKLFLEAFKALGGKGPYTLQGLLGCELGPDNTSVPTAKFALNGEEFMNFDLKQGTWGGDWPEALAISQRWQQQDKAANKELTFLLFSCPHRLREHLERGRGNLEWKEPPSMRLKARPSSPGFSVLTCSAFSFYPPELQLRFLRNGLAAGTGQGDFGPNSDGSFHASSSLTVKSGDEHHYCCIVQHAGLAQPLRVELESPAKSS
Chain of human FcRn, heterodimer with β2 microglobulin, extracellular domain with C-terminal hexa-His (partner, as listed by the source, chain 2 of 2): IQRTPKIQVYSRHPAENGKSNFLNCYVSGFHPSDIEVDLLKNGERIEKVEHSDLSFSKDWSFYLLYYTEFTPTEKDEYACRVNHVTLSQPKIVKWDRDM

[4] = target: human FcγRIIa H131 extracellular domain, C-terminal hexa-His (independently-made panel) (human) (UniProt P12318)
Chain of human FcγRIIa H131 extracellular domain, C-terminal hexa-His (independently-made panel) (human) (P12318 34-217): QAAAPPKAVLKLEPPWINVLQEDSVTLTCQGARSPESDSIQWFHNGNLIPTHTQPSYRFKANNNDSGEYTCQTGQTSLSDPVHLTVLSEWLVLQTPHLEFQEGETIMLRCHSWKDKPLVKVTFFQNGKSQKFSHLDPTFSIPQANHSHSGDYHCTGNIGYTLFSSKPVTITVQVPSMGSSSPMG

Chain of cynomolgus monkey FcRn, heterodimer with β2 microglobulin, extracellular domain with C-terminal hexa-His (cynomolgus monkey | not stated) (Q8SPV9 24-297, chain 1 of 2): as the sequence (P55899 24-297, chain 1 of 2) above, with N39D, E44Q, G99S, S189G, S190N, L217M, S269T counted along it
Chain of cynomolgus monkey FcRn, heterodimer with β2 microglobulin, extracellular domain with C-terminal hexa-His (cynomolgus monkey | not stated) (Q6T672 21-119, chain 2 of 2, further chain): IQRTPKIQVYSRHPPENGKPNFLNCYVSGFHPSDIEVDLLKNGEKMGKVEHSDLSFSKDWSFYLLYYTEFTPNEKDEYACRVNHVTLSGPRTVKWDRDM
Chain of mouse FcRn, heterodimer with β2 microglobulin, extracellular domain with C-terminal hexa-His (mouse | not stated) (Q61559 22-297, chain 1 of 2): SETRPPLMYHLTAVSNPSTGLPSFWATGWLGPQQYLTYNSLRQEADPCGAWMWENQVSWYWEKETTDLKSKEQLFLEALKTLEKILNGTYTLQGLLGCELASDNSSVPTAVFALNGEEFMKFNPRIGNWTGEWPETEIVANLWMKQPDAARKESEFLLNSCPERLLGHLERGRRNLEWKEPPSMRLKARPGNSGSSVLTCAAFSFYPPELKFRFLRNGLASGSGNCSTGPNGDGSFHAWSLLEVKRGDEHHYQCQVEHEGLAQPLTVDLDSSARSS
Chain of mouse FcRn, heterodimer with β2 microglobulin, extracellular domain with C-terminal hexa-His (mouse | not stated) (P01887 21-119, chain 2 of 2, further chain): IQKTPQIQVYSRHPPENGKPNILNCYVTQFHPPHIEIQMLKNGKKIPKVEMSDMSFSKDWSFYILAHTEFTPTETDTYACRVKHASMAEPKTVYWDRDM

Row | Substance | Kd [1] [nM] | Kd [2] [nM] | Kd [3] [nM] | Mean normalised luminescence (% of wild-type reference); Promega Fc effector bioassay, Jurkat NFAT-luciferase cells with the receptor + Raji cells, antibody 10 μg/mL [4] [%]
1 | Remicade (rituximab, wild-type human IgG1) (from UniProt P01857) | 347 | 71 | 562 | 
2 | anti-CD20 (rituximab variable regions) human IgG1 wild type reference (antibody) |  |  |  | 100
